Test results taken from patent US20220235109A1 (CUGENE, published 2022).

T1: IL-2Rβγ on human CD8+ T cells, NK cells and CD4+ T cells (human, UniProt P14784 27-551; P31785 23-369)
T1 sequence (looked up) 1: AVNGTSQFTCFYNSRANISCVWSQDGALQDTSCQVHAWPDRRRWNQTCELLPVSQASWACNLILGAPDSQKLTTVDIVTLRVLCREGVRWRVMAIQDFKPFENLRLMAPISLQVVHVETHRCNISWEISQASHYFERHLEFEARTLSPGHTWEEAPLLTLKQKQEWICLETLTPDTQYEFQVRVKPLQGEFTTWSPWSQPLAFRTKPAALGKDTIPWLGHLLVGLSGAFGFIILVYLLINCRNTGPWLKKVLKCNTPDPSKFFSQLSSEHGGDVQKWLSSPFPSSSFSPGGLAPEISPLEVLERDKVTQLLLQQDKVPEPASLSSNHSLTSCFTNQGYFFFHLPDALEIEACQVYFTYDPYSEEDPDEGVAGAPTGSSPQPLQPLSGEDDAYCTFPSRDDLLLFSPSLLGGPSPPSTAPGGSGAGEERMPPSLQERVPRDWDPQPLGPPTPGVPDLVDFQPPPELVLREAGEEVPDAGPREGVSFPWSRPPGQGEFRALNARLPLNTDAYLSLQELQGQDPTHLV
T1 sequence (looked up) 2: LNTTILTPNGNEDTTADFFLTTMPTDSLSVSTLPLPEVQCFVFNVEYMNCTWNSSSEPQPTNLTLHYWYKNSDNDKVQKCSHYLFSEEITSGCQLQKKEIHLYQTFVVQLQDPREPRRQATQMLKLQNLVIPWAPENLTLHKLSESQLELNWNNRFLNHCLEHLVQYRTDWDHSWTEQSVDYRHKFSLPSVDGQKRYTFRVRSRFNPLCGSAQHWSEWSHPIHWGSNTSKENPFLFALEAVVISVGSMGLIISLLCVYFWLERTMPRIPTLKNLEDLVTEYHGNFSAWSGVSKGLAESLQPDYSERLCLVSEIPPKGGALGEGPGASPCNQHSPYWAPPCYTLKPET

T2: IL-2Rα-ECD (human, UniProt P01589 22-240)
T2 construct: coated on ELISA plates at 0.1 µg/well; also called CD25; receptor subunit α
T2 sequence: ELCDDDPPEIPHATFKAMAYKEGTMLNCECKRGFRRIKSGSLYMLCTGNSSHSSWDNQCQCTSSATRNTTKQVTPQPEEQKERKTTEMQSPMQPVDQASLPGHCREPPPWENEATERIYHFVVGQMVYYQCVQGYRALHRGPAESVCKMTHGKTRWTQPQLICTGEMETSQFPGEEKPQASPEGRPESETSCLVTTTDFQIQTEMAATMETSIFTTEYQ


Columns and labels:
[1] = molecular target: T1, IL-2Rβγ on human CD8+ T cells, NK cells …; assay: cell-based or functional assay
IL-2Rα-ECD = molecular target: T2, IL-2Rα-ECD; assay: ELISA, IL-2Rα-ECD coated
Experimental: A panel of IL-2 muteins was expressed as C-terminal fusions to the Fc homodimer of Fc heterodimer and screened for binding to IL-2Rα in enzyme-linked immunosorbent assay (ELISA). Briefly, IL-2Rα-ECD (SEQ ID NO: 5) was coated onto the wells of Nunc Maxisorp 96-well microplates at 0.1 μg/well. After overnight incubation at 4° C. and blocking with superblock (Thermo Fisher), 3-fold serial dilutions of IL-2 Fc fusion proteins starting at 100 nM were added to each well at 100 μI/well. Following one-hour incubation at room temperature, 100 μl/well of goat anti-human IgG Fc-HRP (1:5000 diluted in diluent) were added to each well and incubated at room temperature for 1 hour. Wells were thoroughly aspirated and washed three times with PBS/0.05% Tween-20 following each step. Finally, 100 μl TMB substrate was added to each well; the plate was developed at room temperature in the dark for 10 minutes, and 100 μl/well of stop solution (2N Sulfuric acid, Ricca Chemical) was added. Absorbance was determined at 450 nm and curves were fit using Prism software (Graph Pad).

Binder | Ki67 EC50 (nM), CD8+ T [1] [nM] | Ki67 EC50 (nM), NK [1] [nM] | pSTA5 EC50 (pM), CD8+ T [1] [pM] | pSTA5 EC50 (pM), NK [1] [pM] | Binding EC50 vs P-0689 (IL-2Rα-ECD) | binding result (IL-2Rα-ECD)
P-0880 (antibody, human IgG1, kappa) heavy 1: not shown heavy 2: EVQLVESGGGLVKPGGSLRLSCAASGFTFSSYDMSWVRQAPGKGLEWVATISGGGSYTYYPDSVKGRFTISRDNAKNSLYLQMNSLRAEDTAVYYCASPDSSGVAYWGQGTLVTVSSASTKGPSVFPLAPSSKSTSGGTAALGCLVKDYFPEPVTVSWNSGALTSGVHTFPAVLQSSGLYSLSSVVTVPSSSLGTQTYICNVNHKPSNTKVDKKVEPKSCDKTHTCPPCPAPEAAGAPSVFLFPPKPKDTLMISRTPEVTCVVVDVSHEDPEVKFNWYVDGVEVHNAKTKPREEQYNSTYRVVSVLTVLHQDWLNGKEYKCKVSNKALPAPIEKTISKAKGQPREPQVCTLPPSREEMTKNQVSLSCAVKGFYPSDIAVEWESNGQPENNYKTTPPVLDSDGSFFLVSKLTVDKSRWQQGNVFSCSVMHEALHNHYTQKSLSLSPG light: DIVMTQSPLSLPVTPGEPASITCKASQDVETVVAWYLQKPGQSPRLLIYWASTRHTGVPDRFSGSGSGTDFTLKISRVEAEDVGVYYCQQYSRYPWTFGQGTKLEIKRTVAAPSVFIFPPSDEQLKSGTASVVCLLNNFYPREAKVQWKVDNALQSGNSQESVTEQDSKDSTYSLSSTLTLSKADYEKHKVYACEVTHQGLSSPVTKSFNRGEC | 1.7 | 3.6 | 73 | 643 | – | –
P-0702 (Fc fusion, knob chain carries the IL-2 variant; hole-Fc; monovalent; also called IL-2 F42A/E62F/S125I monovalent Fc fusion) chain 1: DKTHTCPPCPAPEAAGAPSVFLFPPKPKDTLMISRTPEVTCVVVDVSHEDPEVKFNWYVDGVEVHNAKTKPREEQYNSTYRVVSVLTVLHQDWLNGKEYKCKVSNKALPAPIEKTISKAKGQPREPQVCTLPPSREEMTKNQVSLWCLVKGFYPSDIAVEWESNGQPENNYKTTPPVLDSDGSFFLYSKLTVDKSRWQQGNVFSCSVMHEALHNHYTQKSLSLSPGGGGSGGGSAPTSSSTKKTQLQLEHLLLDLQMILNGINNYKNPKLTRMLTAKFYMPKKATELKHLQCLEEFLKPLEEVLNLAQSKNFHLRPRDLISNINVIVLELKGSETTFMCEYADETATIVEFLNRWITFIQSIISTLT chain 2: DKTHTCPPCPAPEAAGAPSVFLFPPKPKDTLMISRTPEVTCVVVDVSHEDPEVKFNWYVDGVEVHNAKTKPREEQYNSTYRVVSVLTVLHQDWLNGKEYKCKVSNKALPAPIEKTISKAKGQPREPQVYTLPPCREEMTKNQVSLSCAVKGFYPSDIAVEWESNGQPENNYKTTPPVLDSDGSFFLVSKLTVDKSRWQQGNVFSCSVMHEALHNHYTQKSLSLSPG | – | – | – | – | > 500 fold (ratio of EC50s) | no binding

Now from value to binder:

Ki67 EC50 (nM), CD8+ T [1] [nM] | Ki67 EC50 (nM), NK [1] [nM] | pSTA5 EC50 (pM), CD8+ T [1] [pM] | pSTA5 EC50 (pM), NK [1] [pM] | Binding EC50 vs P-0689 (IL-2Rα-ECD) | binding result (IL-2Rα-ECD) | Binder
77 | 230 | 513 | 9920 | – | – | P-0882 (antibody, human IgG1, kappa) heavy 1: EVQLVESGGGLVKPGGSLRLSCAASGFTFSSYDMSWVRQAPGKGLEWVATISGGGSYTYYPDSVKGRFTISRDNAKNSLYLQMNSLRAEDTAVYYCASPDSSGVAYWGQGTLVTVSSASTKGPSVFPLAPSSKSTSGGTAALGCLVKDYFPEPVTVSWNSGALTSGVHTFPAVLQSSGLYSLSSVVTVPSSSLGTQTYICNVNHKPSNTKVDKKVEPKSCDKTHTCPPCPAPEAAGAPSVFLFPPKPKDTLMISRTPEVTCVVVDVSHEDPEVKFNWYVDGVEVHNAKTKPREEQYNSTYRVVSVLTVLHQDWLNGKEYKCKVSNKALPAPIEKTISKAKGQPREPQVYTLPPCREEMTKNQVSLWCLVKGFYPSDIAVEWESNGQPENNYKTTPPVLDSDGSFFLYSKLTVDKSRWQQGNVFSCSVMHEALHNHYTQKSLSLSPGGGGGSGGGGSGGGGSAPTSSSTKKTQLQLEHLLHDLQMILNGINNYKNPKLTRMLTFKFYMPKKATELKHLQCLEEELKRLEEVLNLAQSKNFHLRPRDLISNINVIVLELKGSETTFMCEYADETATIVEFLNRWITFIQSIISTLT heavy 2: EVQLVESGGGLVKPGGSLRLSCAASGFTFSSYDMSWVRQAPGKGLEWVATISGGGSYTYYPDSVKGRFTISRDNAKNSLYLQMNSLRAEDTAVYYCASPDSSGVAYWGQGTLVTVSSASTKGPSVFPLAPSSKSTSGGTAALGCLVKDYFPEPVTVSWNSGALTSGVHTFPAVLQSSGLYSLSSVVTVPSSSLGTQTYICNVNHKPSNTKVDKKVEPKSCDKTHTCPPCPAPEAAGAPSVFLFPPKPKDTLMISRTPEVTCVVVDVSHEDPEVKFNWYVDGVEVHNAKTKPREEQYNSTYRVVSVLTVLHQDWLNGKEYKCKVSNKALPAPIEKTISKAKGQPREPQVCTLPPSREEMTKNQVSLSCAVKGFYPSDIAVEWESNGQPENNYKTTPPVLDSDGSFFLVSKLTVDKSRWQQGNVFSCSVMHEALHNHYTQKSLSLSPG light: DIVMTQSPLSLPVTPGEPASITCKASQDVETVVAWYLQKPGQSPRLLIYWASTRHTGVPDRFSGSGSGTDFTLKISRVEAEDVGVYYCQQYSRYPWTFGQGTKLEIKRTVAAPSVFIFPPSDEQLKSGTASVVCLLNNFYPREAKVQWKVDNALQSGNSQESVTEQDSKDSTYSLSSTLTLSKADYEKHKVYACEVTHQGLSSPVTKSFNRGEC
9.3 | 21 | 249 | 2330 | – | – | P-0885 (antibody, human IgG1, kappa) heavy 1: EVQLVESGGGLVKPGGSLRLSCAASGFTFSSYDMSWVRQAPGKGLEWVATISGGGSYTYYPDSVKGRFTISRDNAKNSLYLQMNSLRAEDTAVYYCASPDSSGVAYWGQGTLVTVSSASTKGPSVFPLAPSSKSTSGGTAALGCLVKDYFPEPVTVSWNSGALTSGVHTFPAVLQSSGLYSLSSVVTVPSSSLGTQTYICNVNHKPSNTKVDKKVEPKSCDKTHTCPPCPAPEAAGAPSVFLFPPKPKDTLMISRTPEVTCVVVDVSHEDPEVKFNWYVDGVEVHNAKTKPREEQYNSTYRVVSVLTVLHQDWLNGKEYKCKVSNKALPAPIEKTISKAKGQPREPQVYTLPPCREEMTKNQVSLWCLVKGFYPSDIAVEWESNGQPENNYKTTPPVLDSDGSFFLYSKLTVDKSRWQQGNVFSCSVMHEALHNHYTQKSLSLSPGGGGGSGGGGSGGGGSAPTSSSTKKTQLQLEHLLQDLQMILNGINNYKNPKLTRMLTFKFYMPKKATELKHLQCLEEELKRLEEVLNLAQSKNFHLRPRDLISNINVIVLELKGSETTFMCEYADETATIVEFLNRWITFIQSIISTLT heavy 2: EVQLVESGGGLVKPGGSLRLSCAASGFTFSSYDMSWVRQAPGKGLEWVATISGGGSYTYYPDSVKGRFTISRDNAKNSLYLQMNSLRAEDTAVYYCASPDSSGVAYWGQGTLVTVSSASTKGPSVFPLAPSSKSTSGGTAALGCLVKDYFPEPVTVSWNSGALTSGVHTFPAVLQSSGLYSLSSVVTVPSSSLGTQTYICNVNHKPSNTKVDKKVEPKSCDKTHTCPPCPAPEAAGAPSVFLFPPKPKDTLMISRTPEVTCVVVDVSHEDPEVKFNWYVDGVEVHNAKTKPREEQYNSTYRVVSVLTVLHQDWLNGKEYKCKVSNKALPAPIEKTISKAKGQPREPQVCTLPPSREEMTKNQVSLSCAVKGFYPSDIAVEWESNGQPENNYKTTPPVLDSDGSFFLVSKLTVDKSRWQQGNVFSCSVMHEALHNHYTQKSLSLSPG light: DIVMTQSPLSLPVTPGEPASITCKASQDVETVVAWYLQKPGQSPRLLIYWASTRHTGVPDRFSGSGSGTDFTLKISRVEAEDVGVYYCQQYSRYPWTFGQGTKLEIKRTVAAPSVFIFPPSDEQLKSGTASVVCLLNNFYPREAKVQWKVDNALQSGNSQESVTEQDSKDSTYSLSSTLTLSKADYEKHKVYACEVTHQGLSSPVTKSFNRGEC
– | – | – | – | > 500 fold (ratio of EC50s) | no binding | P-0703 (Fc fusion, knob chain carries the IL-2 variant; hole-Fc; monovalent; also called IL-2 F42A/P65H/S125I monovalent Fc fusion) chain 1: DKTHTCPPCPAPEAAGAPSVFLFPPKPKDTLMISRTPEVTCVVVDVSHEDPEVKFNWYVDGVEVHNAKTKPREEQYNSTYRVVSVLTVLHQDWLNGKEYKCKVSNKALPAPIEKTISKAKGQPREPQVCTLPPSREEMTKNQVSLWCLVKGFYPSDIAVEWESNGQPENNYKTTPPVLDSDGSFFLYSKLTVDKSRWQQGNVFSCSVMHEALHNHYTQKSLSLSPGGGGSGGGSAPTSSSTKKTQLQLEHLLLDLQMILNGINNYKNPKLTRMLTAKFYMPKKATELKHLQCLEEELKHLEEVLNLAQSKNFHLRPRDLISNINVIVLELKGSETTFMCEYADETATIVEFLNRWITFIQSIISTLT chain 2: DKTHTCPPCPAPEAAGAPSVFLFPPKPKDTLMISRTPEVTCVVVDVSHEDPEVKFNWYVDGVEVHNAKTKPREEQYNSTYRVVSVLTVLHQDWLNGKEYKCKVSNKALPAPIEKTISKAKGQPREPQVYTLPPCREEMTKNQVSLSCAVKGFYPSDIAVEWESNGQPENNYKTTPPVLDSDGSFFLVSKLTVDKSRWQQGNVFSCSVMHEALHNHYTQKSLSLSPG
